The target in this data set is T1, Nkx2.2 (in vitro translated) (UniProt P42586 1-273).
T1 sequence: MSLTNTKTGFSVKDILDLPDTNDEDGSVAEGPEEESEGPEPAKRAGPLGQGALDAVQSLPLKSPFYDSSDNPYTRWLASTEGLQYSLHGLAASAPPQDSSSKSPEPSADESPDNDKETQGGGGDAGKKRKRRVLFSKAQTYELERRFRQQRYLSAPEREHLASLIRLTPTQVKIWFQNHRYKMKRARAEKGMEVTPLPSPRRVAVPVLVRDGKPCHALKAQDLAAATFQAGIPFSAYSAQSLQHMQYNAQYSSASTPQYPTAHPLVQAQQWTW
Kind of data set: EMSA; EMSA as in ref 20; buffer, salt, pH and temperature not given. Particulars: protein: ivt, label: 32P-dCTP Klenow fill-in, filled in with Klenow. On the technique in general: In EMSA bound probe runs differently from free probe, usually more slowly.

B1: Ins2 -477 (Ins -471 in probe list) (dsDNA)
DNA 1: AAGCAGAACTCAGGCAGCAAGGTACTTAATGGTCCCTCCTTCTCCATC
DNA 2: AGAGATGGAGAAGGAGGGACCATTAAGTACCTTGCTGCCTGAGTTCT
Take B1: the binding result (5' overhangs) is listed as “binds”.

B2: Nkx2.2 AAGT consensus (dsDNA)
DNA 1: TCGACGCGATTTTTCAAGTGGTTTTCAGTAGC
DNA 2: AGCTGCTACTGAAAACCACTTGAAAAATCGCG
For the molecule B2, the binding result (5' overhang 4 nt) was “binds”.

B3: Ins2 -144 (dsDNA)
DNA 1: TGCTTTCTGCAGACCTAGCACCAGGCAAGTGTTTGGAAACTGCAGCT
DNA 2: CTGAAGCTGCAGTTTCCAAACACTTGCCTGGTGCTAGGTCTGCAGAA
Turning to B3, the binding result (5' overhangs) was “no binding”.

B4: Nkx6.2 +1669 (+669 in probe list) (dsDNA)
DNA 1: CCGAATCCCGCGCGGGCCACTTACCGGAGCCGGCCAGTCGCGGGTCCCTC
DNA 2: CTGGAGGGACCCGCGACTGGCCGGCTCCGGTAAGTGGCCCGCGCGGGATT
B4: where the note is “5' overhangs”, the binding result is recorded as “no binding”.

B5: Gcg -1080 (dsDNA)
DNA 1: AGACCATTGAAACAACTGGAGGAGTACTCTGACTGAACTTAATTCTTCAT
DNA 2: AGAATGAAGAATTAAGTTCAGTCAGAGTACTCCTCCAGTTGTTTCAATGG
Regarding B5, where the note is “5' overhangs”, the binding result is reported as “no binding”.

The record behind these values is publication PMC3050729, “Novel computational analysis of protein binding array data identifies direct targets of Nkx2.2 in the pancreas”.
